These results are taken from patent US20030162190.

Data set [1] addresses NF-kB p65 (RelA) homodimer (UniProt Q04206). As to the kind of experiment: EMSA. The note with it: 1:1 stoichiometry; method inferred.
The target in the next data set is NF-kB p50 homodimer (UniProt P19838). As to the kind of experiment: EMSA. The settings on record: only 'similar data was collected for p50'; method inferred. For orientation: Mobility shift assays separate free from complexed probe on a gel.
Chain of NF-kB p50 homodimer (P19838 1-433): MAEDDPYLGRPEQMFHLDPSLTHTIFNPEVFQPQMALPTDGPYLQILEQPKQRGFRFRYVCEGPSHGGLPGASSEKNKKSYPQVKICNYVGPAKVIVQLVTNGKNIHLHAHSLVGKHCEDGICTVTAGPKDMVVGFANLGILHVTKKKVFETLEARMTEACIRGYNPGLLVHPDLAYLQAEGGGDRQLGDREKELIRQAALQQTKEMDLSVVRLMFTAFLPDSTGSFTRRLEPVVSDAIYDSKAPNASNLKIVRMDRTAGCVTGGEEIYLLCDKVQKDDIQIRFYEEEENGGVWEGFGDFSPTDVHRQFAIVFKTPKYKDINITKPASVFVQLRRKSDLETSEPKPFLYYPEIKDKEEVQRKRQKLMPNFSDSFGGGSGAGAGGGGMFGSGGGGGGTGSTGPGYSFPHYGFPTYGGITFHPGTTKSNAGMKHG

Chain of NF-kB p65 (RelA) homodimer (Q04206 whole entry): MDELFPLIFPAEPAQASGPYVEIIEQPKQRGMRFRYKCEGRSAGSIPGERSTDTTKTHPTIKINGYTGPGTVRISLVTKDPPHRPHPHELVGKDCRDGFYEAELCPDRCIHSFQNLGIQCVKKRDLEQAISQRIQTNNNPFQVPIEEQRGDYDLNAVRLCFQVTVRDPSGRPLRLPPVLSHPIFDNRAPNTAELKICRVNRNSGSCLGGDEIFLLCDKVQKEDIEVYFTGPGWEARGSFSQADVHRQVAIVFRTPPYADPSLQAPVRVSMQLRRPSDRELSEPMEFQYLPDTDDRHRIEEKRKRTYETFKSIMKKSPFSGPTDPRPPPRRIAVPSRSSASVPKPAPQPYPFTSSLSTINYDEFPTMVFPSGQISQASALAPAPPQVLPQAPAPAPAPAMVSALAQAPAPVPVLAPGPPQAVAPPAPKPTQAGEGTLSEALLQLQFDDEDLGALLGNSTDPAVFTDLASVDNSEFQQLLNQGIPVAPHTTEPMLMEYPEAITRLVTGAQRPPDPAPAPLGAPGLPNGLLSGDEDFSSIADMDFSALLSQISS

As usually defined, the Kd is the equilibrium constant for the complex coming apart. Read a high Kd as weaker binding. Consider IgkB 22-mer promoter site, for which the Kd (in data set [1]; in the data set with NF-kB p50 homodimer) was 4 nM in each case.
